B1: SHC-transforming protein 1 (Homo sapiens), P29353-1 (parent)
chain: MDLLPPKPKYNPLRNESLSSLEEGASGSTPPEELPSPSASSLGPILPPLPGDDSPTTLCSFFPRMSNLRLANPAGGRPGSKGEPGRAADDGEGIVGAAMPDSGPLPLLQDMNKLSGGGGRRTRVEGGQLGGEEWTRHGSFVNKPTRGWLHPNDKVMGPGVSYLVRYMGCVEVLQSMRALDFNTRTQVTREAISLVCEAVPGAKGATRRRKPCSRPLSSILGRSNLKFAGMPITLTVSTSSLNLMAADCKQIIANHHMQSISFASGGDPDTAEYVAYVAKDPVNQRACHILECPEGLAQDVISTIGQAFELRFKQYLRNPPKLVTPHDRMAGFDGSAWDEEEEEPPDHQYYNDFPGKEPPLGGVVDMRLREGAAPGAARPTAPNAQTPSHLGATLPVGQPVGGDPEVRKQMPPPPPCPGRELFDDPSYVNVQNLDKARQAVGGAGPPNPAINGSAPRDLFDMKPFEDALRVPPPPQSVSMAEQLRGEPWFHGKLSRREAEALLQLNGDFLVRESTTTPGQYVLTGLQSGQPKHLLLVDPEGVVRTKDHRFESVSHLISYHMDNHLPIISAGSELCLQQPVERKL

Variants of: B1
Settings: with grb2_human GRB2, P62993
grb2_human GRB2, P62993, sequence (P62993 whole entry, looked up): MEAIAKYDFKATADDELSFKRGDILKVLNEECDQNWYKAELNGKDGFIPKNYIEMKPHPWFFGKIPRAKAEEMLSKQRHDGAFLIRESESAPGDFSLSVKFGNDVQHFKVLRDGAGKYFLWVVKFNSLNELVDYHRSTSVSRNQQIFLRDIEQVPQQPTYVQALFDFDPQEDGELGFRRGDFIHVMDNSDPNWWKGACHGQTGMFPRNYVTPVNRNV

| Variant | effect of a mutation on the interaction |
| --- | --- |
| P47A;P50A | decreasing interaction |

— IntAct's records for PubMed 16520382
